{"source": "patent US7238711", "about": "(CAMBRIDGE ENTERPRISE, dated 2007)", "binders": {"B1": {"name": "Pep2(1-15)[SDF1] (peptide)", "peptide": "HLKILNTPNCALQIV", "notes": "also called Pep2[SDF1]; peptide 2(1-15)[SDF1α]"}, "B2": {"name": "peptide 2(1-15)[MCP-1] (peptide)", "peptide": "SYRRITSSKCPKEAV", "notes": "also called Pep2[MCP1]; Pep2(1-15)[MCP1]"}, "B3": {"name": "Pep2(1-14)[MIP1α] (peptide)", "peptide": "DYFETSSQCSKPGV", "notes": "also called Pep2[MIP1α]; peptide 2(1-15)[MIP1-α]"}}}
{"target": "T1, Duffy Antigen Receptor for Chemokines (DARC) (human, UniProt Q16570 1-336)", "T1 construct": "whole, on cells; also called red blood cells expressing DARC", "T1 sequence (looked up)": "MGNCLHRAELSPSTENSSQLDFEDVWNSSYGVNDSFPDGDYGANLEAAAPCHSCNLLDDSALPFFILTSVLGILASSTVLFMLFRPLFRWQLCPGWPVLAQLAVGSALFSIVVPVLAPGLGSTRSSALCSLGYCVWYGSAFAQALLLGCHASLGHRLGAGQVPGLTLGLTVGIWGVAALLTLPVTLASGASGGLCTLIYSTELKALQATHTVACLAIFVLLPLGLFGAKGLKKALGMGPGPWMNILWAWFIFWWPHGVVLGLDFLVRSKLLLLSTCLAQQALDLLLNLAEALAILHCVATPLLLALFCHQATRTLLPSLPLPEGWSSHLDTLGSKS", "experiment": "DARC binding, Table 18", "units": {"DARC binding": "µM"}}
{"binder": "B1", "DARC binding": 19}
{"binder": "B2", "DARC binding": 0.1}
{"binder": "SYRRITSSKC", "DARC binding": 22}
{"target": "T1, Duffy Antigen Receptor for Chemokines …", "experiment": "ka for red blood cells divided by ka for THP-1 cells"}
{"binder": "B1", "Duffy selectivity": "< 1"}
{"binder": "B2", "Duffy selectivity": 0.18}
{"binder": "B3", "Duffy selectivity": "> 100"}
